The results in this text go back to patent US20150099705A1.

The target in this test is human Nav1.7 (sodium channel protein type 9 subunit alpha) (human) (UniProt Q15858). The test can be described thus: cell-based or functional assay.

On to wild type Protoxin-II (peptide), for which the IC50, FLIPR assay is 4 nM.
